In patent US20190022241A1:

Columns and labels:
[1] = target: human SEZ6 on NTX tumor cells (human) (UniProt Q53EL9); test: flow cytometry dot plot of LU86 NTX tumor cells, CD324 against MOPC isotype control
[2] = target: human SEZ6 on NTX tumor cells (human) (UniProt Q53EL9); test: flow cytometry dot plot of LU64 NTX tumor cells, CD324 against MOPC isotype control
[3] = target: human SEZ6 on NTX tumor cells (human) (UniProt Q53EL9); test: flow cytometry dot plot of LU117 NTX tumor cells, CD324 against MOPC isotype control

- % of cells in the lower right quadrant (CD324-, MOPC+) [1]: 0.014%
- % of cells in the upper right quadrant (CD324+, MOPC+) [1]: 0.483%
- % of cells in the upper right quadrant (CD324+, MOPC+) [2]: 0.597%
- % of cells in the upper right quadrant (CD324+, MOPC+) [3]: 0.347%
Substance: MOPC (antibody)
